From the supplement of paper PMC10126150
± gives the standard deviation of the averaged measurements.

Tested on: ATP
Assay: switch fluorescence ratio, 500 uM ATP over buffer (Cy3 cluster intensity, sum of 5 cycles each) (fold (ratio)); higher = stronger signal-on switching upon ATP binding; sequences stand for … in TCGTCGGCAGCGTCAGATGTGTATAAGAGACAGTTTTTTTTTTTTTTTTTTTTTTTTT…TC
Details: aptamer strand: ATP DNA aptamer (quencher-CACCTGGGGGAGTATTGCGGAGGAAGG + anchor), 100 nM annealed; ATP concentration: 500 uM
How it was run: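 Clusters carrying Cy3-labelled switching strands on a modified Illumina MiSeq flow-cell were annealed to 100 nM quencher-labelled ATP aptamer and imaged in selection buffer. They were imaged again after 15 min with 500 uM ATP at 22 °C, over five buffer/ATP cycles with NaOH stripping and re-annealing in between. For each cluster, the fluorescence ratio is the summed Cy3 intensity of the target cycles divided by that of the buffer cycles, averaged per switch-domain sequence. Clusters outside 100-1000 RFU were left out.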
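Note: ATP exposure 15 min at 22 °C before imaging.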

TTGATTGAGG and TTGATTGGAT are the same in switch fluorescence ratio: 1 ± 0.017 for the first, 1 ± 0.014 for the second.

TTGATTGGGC and TTGATTGTTT are within error of each other in switch fluorescence ratio: 0.989 ± 0.025 for the first, 0.987 ± 0.016 for the second.

TTGATTTACT and TTGATTTGTG are within error of each other in switch fluorescence ratio: 0.993 ± 0.03 for the first, 0.997 ± 0.012 for the second.

TTGATTTTAG and TTGCAATTTA are within error of each other in switch fluorescence ratio: 1 ± 0.031 for the first, 1.06 ± 0.033 for the second.

TTGCAGGGGT and TTGCAGGGTG are within error of each other in switch fluorescence ratio: 1.14 ± 0.25 for the first, 1.17 ± 0.035 for the second.

TTGCATGGGT and TTGCCAGGGA are within error of each other in switch fluorescence ratio: 1.01 ± 0.039 for the first, 0.995 ± 0.014 for the second.

First: TTGCCATCCT
Second: TTGCGAGGTG
The switch fluorescence ratio of the first is lower: 0.98 ± 0.042 for the first, 1.039 ± 0.0055 for the second.

TTGCGATATT and TTGCGGCTTG are within error of each other in switch fluorescence ratio: 1.27 ± 0.36 for the first, 0.9923 ± 0.0088 for the second.

TTGCGGTAGC and TTGCGTATGA are within error of each other in switch fluorescence ratio: 1 ± 0.016 for the first, 1.04 ± 0.063 for the second.

TTGCGTGCCG and TTGCGTGCTT are within error of each other in switch fluorescence ratio: 0.98 ± 0.11 for the first, 1.01 ± 0.027 for the second.

Compared with TTGCGTTTTT, TTGCTACATA is higher in switch fluorescence ratio: 1 ± 0.024 for the first, 1.07 ± 0.011 for the second.

TTGCTATAGA and TTGCTATATT are the same in switch fluorescence ratio: 1.01 ± 0.017 for the first, 1.01 ± 0.032 for the second.

TTGCTATTTC and TTGCTCTGGA are within error of each other in switch fluorescence ratio: 1 ± 0.058 for the first, 1.02 ± 0.015 for the second.

Going from TTGCTGAGGA to TTGCTGTGTG, the switch fluorescence ratio rises from 0.962 ± 0.015 to 1.011 ± 0.0042.

TTGCTTTAGA and TTGCTTTTGG are within error of each other in switch fluorescence ratio: 0.974 ± 0.012 for the first, 1.04 ± 0.11 for the second.

Compared with TTGGAAATTA, TTGGAACATA is lower in switch fluorescence ratio: 1.036 ± 0.0082 for the first, 0.986 ± 0.03 for the second.

Going from TTGGAAGGGC to TTGGACGCCG, the switch fluorescence ratio rises from 1.012 ± 0.0063 to 1.07 ± 0.041.

TTGGAGAAA and TTGGAGATTT are within error of each other in switch fluorescence ratio: 1.27 ± 0.36 for the first, 1.02 ± 0.022 for the second.

TTGGAGGAGA and TTGGAGGGGA are within error of each other in switch fluorescence ratio: 1.029 ± 0.005 for the first, 1.01 ± 0.018 for the second.

TTGGATAGAG and TTGGATAGGT are within error of each other in switch fluorescence ratio: 0.996 ± 0.013 for the first, 0.981 ± 0.027 for the second.

First: TTGGATATGT
Second: TTGGATGGGA
The switch fluorescence ratio of the first is lower: 0.9573 ± 0.0047 for the first, 1 ± 0.034 for the second.

TTGGATTAAC and TTGGATTTGG are within error of each other in switch fluorescence ratio: 1.01 ± 0.029 for the first, 1.02 ± 0.051 for the second.

TTGGATTTTT and TTGGCAAAGG are within error of each other in switch fluorescence ratio: 0.992 ± 0.041 for the first, 1.1 ± 0.19 for the second.

TTGGCAACTT and TTGGCAGATT are within error of each other in switch fluorescence ratio: 1.03 ± 0.03 for the first, 1.004 ± 0.0061 for the second.

TTGGCATAGT and TTGGCATCCT are within error of each other in switch fluorescence ratio: 0.989 ± 0.031 for the first, 1.0176 ± 0.00051 for the second.

TTGGCATTTG and TTGGCCACCG are within error of each other in switch fluorescence ratio: 1.02 ± 0.064 for the first, 1.08 ± 0.096 for the second.

TTGGCCCGGG and TTGGCCTTTT are within error of each other in switch fluorescence ratio: 1.01 ± 0.059 for the first, 1.09 ± 0.12 for the second.

TTGGCGAGGA and TTGGCGCTTG are within error of each other in switch fluorescence ratio: 1.003 ± 0.0024 for the first, 1.02 ± 0.025 for the second.

TTGGCTCTGG and TTGGCTCTTT are within error of each other in switch fluorescence ratio: 0.987 ± 0.02 for the first, 1.01 ± 0.02 for the second.

TTGGCTTAG and TTGGCTTGGG are within error of each other in switch fluorescence ratio: 0.999 ± 0.014 for the first, 1.01 ± 0.043 for the second.

TTGGCTTTTT and TTGGGAAATT are within error of each other in switch fluorescence ratio: 1.01 ± 0.015 for the first, 1.02 ± 0.04 for the second.

TTGGGAACAT and TTGGGAAGGC are within error of each other in switch fluorescence ratio: 1 ± 0.016 for the first, 0.972 ± 0.035 for the second.

Compared with TTGGGAATAA, TTGGGAATTT is lower in switch fluorescence ratio: 1.02 ± 0.0046 for the first, 0.975 ± 0.019 for the second.

Compared with TTGGGAGAAA, TTGGGAGTTA is higher in switch fluorescence ratio: 0.9804 ± 0.0092 for the first, 0.99379 ± 0.00026 for the second.

TTGGGATGAG and TTGGGATGTT are within error of each other in switch fluorescence ratio: 1 ± 0.019 for the first, 0.9904 ± 0.009 for the second.

Going from TTGGGATTGG to TTGGGCAACT, the switch fluorescence ratio rises from 0.968 ± 0.018 to 1.06 ± 0.07.

TTGGGCACTG and TTGGGCACTT are within error of each other in switch fluorescence ratio: 0.974 ± 0.013 for the first, 0.997 ± 0.068 for the second.

TTGGGCATGG and TTGGGCATTG are within error of each other in switch fluorescence ratio: 1.02 ± 0.048 for the first, 1.01 ± 0.017 for the second.

In the case of TTGGGCCCGC, the switch fluorescence ratio is reported as 1.007 ± 0.0012.
